Source: patent publication US20240400677A1 (ELECTRA THERAPEUTICS, published 2024)
One block for each binder: values may come before it.

What was measured:
[1] = target: T1, extracellular binding domain of human SIRPγ (plate-coated) (human, UniProt Q9P1W8 29-360); assay: ELISA, coated SIRP ECD (2 µg/mL), anti-human IgG, luminescence
T1 construct: also called hSIRPγ
How it was run: (§1)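 Plate-coated SIRP extracellular domain (2 μg/mL), blocked, then exposed to purified antibodies in titration, after transient expression in Expi293F cells for 5 days and Protein A purification. Bound antibody is detected with anti-human IgG and a chemiluminescent substrate, and reported as relative luminescence units.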

[2] = target: T2, human SIRPγ-His monomer protein (human, UniProt Q9P1W8 29-360); assay: BLI Octet, antibody on AHC, SIRP-His monomer, 1:1 model
T2 construct: also called hSIRPγ
Description: (§2) Select antibodies from Example 1 of the disclosure were tested for their affinities to human SIRPγ, cynomolgus monkey SIRPγ, human SIRPαV1, human SIRPαV2, and human SIRPβ1 using a biolayer interferometry (BLI) Octet system (Pall ForteBio). Each antibody was immobilized on a biosensor tip by an anti-human IgG capture (AHC). […] The biosensors were then exposed to wash buffer to measure off-rate kinetics. The resulting kinetic data were analyzed and fitted using a 1:1 binding model.

[3] = target: T3, cynomolgus monkey SIRPγ-His monomer protein (cynomolgus monkey, UniProt Q9P1W8 29-359 (human entry), limits assumed); assay: as above
T3 construct: also called Cyno SIRPγ; Cyno SIRPγ-His
T3 chain: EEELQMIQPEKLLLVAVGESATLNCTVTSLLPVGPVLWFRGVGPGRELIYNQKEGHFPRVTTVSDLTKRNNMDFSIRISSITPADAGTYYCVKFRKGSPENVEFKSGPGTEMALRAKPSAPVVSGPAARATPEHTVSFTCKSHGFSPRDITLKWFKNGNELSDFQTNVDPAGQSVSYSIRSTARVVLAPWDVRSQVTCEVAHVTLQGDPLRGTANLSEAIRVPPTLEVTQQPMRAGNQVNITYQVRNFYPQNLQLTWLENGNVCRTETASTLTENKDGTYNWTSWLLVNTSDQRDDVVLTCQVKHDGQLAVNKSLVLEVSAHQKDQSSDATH
Description: as §2

[4] = target: T4, human SIRPγ on primary human T-cells (human, UniProt Q9P1W8 29-387); assay: flow cytometry, dye-conjugated antibody, human whole blood (3 donors)
T4 construct: endogenous SIRPγ of donor T-cells; also called SIRPγ on T-cells
Description: Selected antibodies and an isotype control were tested for binding to human T-cells, B-cells, NK cells, monocytes, and granulocytes. […] Up to 50 μg/mL fluorescent dye-conjugated antibodies or isotype controls were incubated with whole blood from three normal donors. T-cells were identified as the CD14−, CD20−, SSClow, and CD3+ population or further identified to be CD4+ or CD8+ populations. B-cells were identified as the CD14−, SSClow, and CD20+ population. NK cells were identified as CD14−, CD20−, CD3−, and CD56+. Monocytes were identified as the SSClow and CD14+ population. Granulocytes were identified as the CD14−, CD20−, CD3−, SSChigh population. Graphs depict the median fluorescence intensity (MFI) of each population.

[5] = target: T5, human SIRPβ1-His monomer protein (human, UniProt O00241 30-371, limits assumed); assay: BLI
Description: as §2

[6] = target: T6, cynomolgus monkey SIRPγ on CHO cells (cynomolgus monkey, UniProt Q9P1W8 29-386 (human entry)); assay: flow cytometry, myc-scFv PPE
T6 construct: also called Cyno SIRPγ CHO
T6 chain: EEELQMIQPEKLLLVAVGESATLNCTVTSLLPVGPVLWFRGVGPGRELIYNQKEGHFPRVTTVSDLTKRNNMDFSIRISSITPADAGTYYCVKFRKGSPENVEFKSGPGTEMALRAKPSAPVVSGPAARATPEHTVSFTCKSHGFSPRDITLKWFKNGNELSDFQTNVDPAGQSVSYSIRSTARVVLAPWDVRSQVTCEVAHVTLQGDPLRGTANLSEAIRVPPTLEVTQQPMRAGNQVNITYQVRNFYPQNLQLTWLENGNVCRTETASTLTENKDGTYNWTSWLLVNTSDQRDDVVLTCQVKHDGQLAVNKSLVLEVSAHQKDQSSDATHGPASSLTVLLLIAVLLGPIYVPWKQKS
How it was run: (§3)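 Stably transfected CHO cells were incubated with titrated antibodies, and binding was detected with a fluorescent anti-human IgG secondary. Median fluorescence intensity was recorded at each concentration. For the myc-scFv format, crude periplasmic extract was incubated with the SIRP-expressing lines and parental CHO-K1, and fold change <2.0 was scored as non-binder.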

[7] = target: T7, human SIRPγ on stably transfected CHO cells (human, UniProt Q9P1W8 29-387); assay: flow cytometry, myc-scFv PPE
T7 construct: also called Human SIRPγ CHO
How it was run: as §3

[8] = target: T2, human SIRPγ-His monomer protein; assay: BLI Octet, V5-scFv PPE captured, SIRP-His 500 nM
[9] = target: T8, human SIRPα V2-His monomer protein (human, UniProt P78324 31-370, limits assumed); assay: BLI Octet, V5-scFv PPE captured, SIRP-His 500 nM
T8 construct: the V2 allele differs from the canonical UniProt P78324 entry

[10] = target: T5, human SIRPβ1-His monomer protein; assay: BLI Octet, V5-scFv PPE captured, SIRP-His 500 nM
[11] = target: T3, cynomolgus monkey SIRPγ-His monomer …; assay: BLI Octet, captured scFv PPE, cyno SIRP
How it was run: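 Bio-layer interferometry used biotinylated anti-V5 on streptavidin sensors to capture V5-tagged scFv from crude periplasmic extract. Monomeric His-tagged SIRP protein at 500 nM was associated, then dissociated in wash buffer. Off-rate (kdis) was analyzed from the kinetic traces.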

[12] = target: T9, cynomolgus monkey SIRPα on CHO cells (cynomolgus monkey, UniProt A0A2K5VYQ9 31-507); assay: flow cytometry
T9 construct: whole, on cells; also called Cyno SIRPα CHO
T9 sequence: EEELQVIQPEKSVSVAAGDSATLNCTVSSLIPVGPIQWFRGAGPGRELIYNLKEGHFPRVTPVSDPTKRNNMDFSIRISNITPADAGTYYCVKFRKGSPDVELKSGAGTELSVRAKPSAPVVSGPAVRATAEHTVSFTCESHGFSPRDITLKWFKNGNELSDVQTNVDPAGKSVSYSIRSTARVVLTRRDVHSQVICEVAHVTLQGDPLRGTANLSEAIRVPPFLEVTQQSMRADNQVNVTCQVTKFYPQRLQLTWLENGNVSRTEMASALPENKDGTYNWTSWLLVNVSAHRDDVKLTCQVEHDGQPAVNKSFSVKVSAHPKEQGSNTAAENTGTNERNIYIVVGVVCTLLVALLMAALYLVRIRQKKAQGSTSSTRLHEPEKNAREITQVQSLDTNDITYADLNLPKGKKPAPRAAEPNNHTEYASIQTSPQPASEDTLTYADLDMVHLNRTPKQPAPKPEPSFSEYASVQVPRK

[13] = target: T9, cynomolgus monkey SIRPα on CHO cells; assay: flow cytometry, myc-scFv PPE
How it was run: as §3

[14] = target: T10, human SIRPβ1 on CHO cells (co-transfected with DAP12) (human, UniProt O00241 30-398); assay: flow cytometry
T10 construct: whole, on cells; co-transfected with DAP12; also called Human SIRPβ1 CHO

[15] = target: T11, Human SIRPαV2 (plate-coated extracellular domain) (Homo sapiens, UniProt P78324); assay: ELISA, coated SIRP ECD (2 µg/mL), anti-human IgG, luminescence
T11 construct: extracellular domain
How it was run: as §1

[16] = target: T8, human SIRPα V2-His monomer protein; assay: BLI
Description: as §2

T5 sequence (O00241 30-371 limits assumed): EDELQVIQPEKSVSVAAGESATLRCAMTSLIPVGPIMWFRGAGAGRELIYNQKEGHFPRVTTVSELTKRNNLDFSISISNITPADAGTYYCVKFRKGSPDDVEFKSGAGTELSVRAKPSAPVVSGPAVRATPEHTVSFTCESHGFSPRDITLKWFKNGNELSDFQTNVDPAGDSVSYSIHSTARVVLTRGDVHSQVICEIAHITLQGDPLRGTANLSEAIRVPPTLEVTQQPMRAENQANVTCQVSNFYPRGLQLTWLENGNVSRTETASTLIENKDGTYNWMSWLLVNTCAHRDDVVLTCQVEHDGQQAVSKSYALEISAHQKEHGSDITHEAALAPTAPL
T2 sequence (Q9P1W8 29-360 limits assumed): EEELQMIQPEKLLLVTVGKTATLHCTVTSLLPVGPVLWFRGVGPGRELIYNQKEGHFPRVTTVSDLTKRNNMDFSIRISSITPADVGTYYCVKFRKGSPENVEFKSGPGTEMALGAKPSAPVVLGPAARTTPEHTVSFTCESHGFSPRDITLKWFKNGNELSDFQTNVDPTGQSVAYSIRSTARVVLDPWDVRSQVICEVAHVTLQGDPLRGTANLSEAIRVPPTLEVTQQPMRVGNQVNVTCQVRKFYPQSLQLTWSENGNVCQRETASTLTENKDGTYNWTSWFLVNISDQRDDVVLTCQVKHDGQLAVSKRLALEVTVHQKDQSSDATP
T8 sequence (P78324 other isoform, or with tags, fused parts or gaps limits assumed): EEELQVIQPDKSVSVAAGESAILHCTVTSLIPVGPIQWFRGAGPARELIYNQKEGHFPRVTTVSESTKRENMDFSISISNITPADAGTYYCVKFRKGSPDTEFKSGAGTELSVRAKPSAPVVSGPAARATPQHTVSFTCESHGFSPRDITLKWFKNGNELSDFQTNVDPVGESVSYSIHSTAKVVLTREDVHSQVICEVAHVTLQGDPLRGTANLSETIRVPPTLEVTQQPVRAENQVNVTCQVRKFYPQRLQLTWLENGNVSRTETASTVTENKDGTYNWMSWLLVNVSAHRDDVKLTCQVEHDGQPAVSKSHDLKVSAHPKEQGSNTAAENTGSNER
T7 sequence (Q9P1W8 29-387 limits assumed): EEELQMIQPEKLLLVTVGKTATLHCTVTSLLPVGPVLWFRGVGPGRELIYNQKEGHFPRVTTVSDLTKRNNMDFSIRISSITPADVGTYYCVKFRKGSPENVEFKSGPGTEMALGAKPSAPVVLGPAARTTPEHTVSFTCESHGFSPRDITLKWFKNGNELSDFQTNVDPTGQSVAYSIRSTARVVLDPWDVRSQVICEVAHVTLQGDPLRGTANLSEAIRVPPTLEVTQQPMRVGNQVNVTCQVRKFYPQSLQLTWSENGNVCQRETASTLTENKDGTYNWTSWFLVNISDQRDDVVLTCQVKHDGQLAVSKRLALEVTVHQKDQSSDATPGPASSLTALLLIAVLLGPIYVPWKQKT
T1 sequence (Q9P1W8 29-360 limits assumed): as the sequence (Q9P1W8 29-360 limits assumed) above
T4 sequence (Q9P1W8 29-387 limits assumed): as the sequence (Q9P1W8 29-387 limits assumed) above
T11 sequence (P78324 other isoform, or with tags, fused parts or gaps limits assumed): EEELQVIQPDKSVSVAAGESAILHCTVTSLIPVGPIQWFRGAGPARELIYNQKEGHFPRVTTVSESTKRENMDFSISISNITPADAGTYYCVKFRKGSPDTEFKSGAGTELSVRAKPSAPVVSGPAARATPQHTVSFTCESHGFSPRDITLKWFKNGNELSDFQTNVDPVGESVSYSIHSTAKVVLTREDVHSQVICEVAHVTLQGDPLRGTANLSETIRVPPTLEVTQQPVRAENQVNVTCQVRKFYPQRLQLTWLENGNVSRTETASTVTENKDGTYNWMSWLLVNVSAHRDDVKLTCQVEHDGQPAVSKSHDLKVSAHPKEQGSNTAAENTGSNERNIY
T10 sequence (O00241 30-398): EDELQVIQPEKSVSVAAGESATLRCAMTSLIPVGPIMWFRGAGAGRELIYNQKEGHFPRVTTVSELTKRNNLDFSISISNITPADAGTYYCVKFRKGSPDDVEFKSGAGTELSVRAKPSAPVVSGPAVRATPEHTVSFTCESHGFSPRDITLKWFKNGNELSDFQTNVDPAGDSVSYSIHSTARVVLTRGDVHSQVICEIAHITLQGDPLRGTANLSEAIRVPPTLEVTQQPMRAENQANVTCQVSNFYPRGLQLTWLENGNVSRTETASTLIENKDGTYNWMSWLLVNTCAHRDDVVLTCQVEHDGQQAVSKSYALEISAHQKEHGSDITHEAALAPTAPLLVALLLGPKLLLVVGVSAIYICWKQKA

EC50 (read off the curve) [1]: ~0.04 µg/mL | Kd [2]: 2.07 nM | Kd [3]: 8.01 nM | EC50 (read off the curve) [4]: ~0.1 µg/mL | binding result [5]: no binding (tested: 300 nM)
B1: Antibody 8 (antibody, V domains shown)
VH: QVQLVQSGAEVKKPGASVKVSCKASGYTFTGYHIHWVRQAPGQGLEWMGWINPNSGGTNYAQKFQGRVTMTRDTSINTAYMELNRLRSDDTAVFYCARERVGYCSRPSCLDDLNIWGQGTMVTVSS
VL: DIQMTQSPSTLSASVGDRVTITCRASQSISSWLAWYQQKPGKAPKLLIYKASSLETGVPSRFSGSGSGTEFTLTISSLQPDDFATYYCQQYDSYYTFGQGTKLEIK

MFI fold change over parental CHO [6]: 24 fold | MFI fold change over parental CHO [7]: 46.5 fold | kdis [8]: 0.001 to 0.01 s⁻¹ | kdis [9]: 0.001 to 0.01 s⁻¹ | kdis [10]: < 0.001 s⁻¹ | binding result [11]: binds | binding result [12]: no binding (tested: fold change <2.0)
B2: Antibody 28 (scFv, V domains shown)
VH: QVQLVQSGAEVKKPGASVKVSCKASGYTFTSYNIHWVRQAPGQGLEWMGWISAYNGNTNYAQKLQGRVTMTRDTSTSTVYMELSSLRSEDTAVYYCALDGGQLGVAFDIWGQGTMVTVSS
VL: DIQMTQSPSSLSASVGDRVTITCRASQGISNWLAWYQQKPGKAPKLLIYDASNLDAGVPSRFSGSGSGTDFTLTISSLQPEDFATYYCQQANSLPLTFGGGTKVEIK
notes: scFv in crude PPE, V5/myc-tagged

MFI fold change over parental CHO [13]: 2.01 fold | MFI fold change over parental CHO [6]: 36.6 fold | MFI fold change over parental CHO [7]: 43.3 fold | kdis [8]: < 0.001 s⁻¹ | binding result [14]: no binding (tested: fold change <2.0)
B3: Antibody 19 (scFv, V domains shown)
VH: QVQLVQSGAEVKKPGASVKVSCKASGYTFTAYYMHWVRQAPGQGLEWMGIINPSGGSTSYAQKFQGRVTMTRDTSTSTVYMELSSLRSEDTAVYYCARDSGWYAPGYYYGMDVWGQGTTVTVSS
VL: DIQMTQSPSSLSASVGDRVTITCRASESISHWLAWYQQKPGKAPKLLIYGASTLQSGVPSRFSGSGSGTDFTLTISSLQPEDFATYYCQQSYTPPLTFGGGTKVEIK
notes: as for B2

binding result [15]: no binding (tested: about 40 µg/mL) | EC50 (read off the curve) [1]: ~0.3 µg/mL | Kd [2]: 296 nM | Kd [3]: 2200 nM | binding result [16]: no binding (tested: 300 nM) | binding result [5]: no binding (tested: 300 nM)
B4: Antibody 7 (antibody, V domains shown)
VH: QVQLVESGGGVVQPGRSLRLSCAASGFTFSNYGMHWVRQAPGKGLEWVAFIWYDGSNKNYADSVKGRFTISRDNPTNTLYLQMNSLRAEDTAVYYCAREEQWLDYWGQGTLVTVSS
VL: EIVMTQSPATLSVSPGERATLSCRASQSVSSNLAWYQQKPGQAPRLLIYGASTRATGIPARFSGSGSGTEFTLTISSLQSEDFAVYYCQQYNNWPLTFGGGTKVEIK
